{
  "source": "patent US20090111098A1",
  "about": "“REPORTER GENE ASSAY” (Shionogi & Co., Ltd., priority 2005, published 2009)",
  "system": "IL-4 regulatory element (STAT6)",
  "experiment": "Confirmation of transcriptional regulatory activity: IL-4 stimulation of reporter-transfected HeLa cells, HTRF ratio value",
  "type": "cell-based, human",
  "conditions": "HeLa cells transfected with reporter plasmid; IL-4 0-100 ng/ml, 3-48 hours",
  "procedure": "HeLa cells (cells deposited with ATCC) were dispersed at a density of 1.2×10^5 cells/ml in a medium (MEM medium containing 10% fetal bovine serum, 100 units/ml penicillin G, 100 μg/ml streptomycin) and then put in a volume of 100 μl per well on a 96-well tissue culture plate. After 24 hours, 20 μg of the reporter plasmid prepared in Example 1, and 60 μl FuGENE6 (Roche), were added to 2 ml FBS-free medium, then left at room temperature for 20 minutes, and added in a volume of 5 μl to each well, followed by incubation for 24 hours to transfect the cells with the reporter plasmid.\nAfter the culture supernatant of the cells was removed, 100 μl of IL-4 diluted with a medium was added at final concentrations of 0, 4, 20 and 100 ng/ml respectively to the respective wells and cultured for 3, 6, 24 and 48 hours. After culture, a cell lysis buffer (Tris buffered physiological saline containing 1% Triton X-100, 5 mM EDTA and a protease inhibitor cocktail) was added in a volume of 100 μl to each well and left at room temperature for 1 hour. […] After the reaction was finished, the fluorescence intensity of each well at 665 nm was measured with a time-resolved fluorescence microplate reader (Rubystar, BMG Labtechnologies). The measurement value was expressed as the ratio value to the fluorescence intensity of cryptate at 620 nm.",
  "data": [
    {"molecule": "IL-4: cytokine that binds IL-4 receptors and activates JAK1/JAK3 and transcription factor STAT6 (protein, UniProt P05112 25-153, looked up) Interleukin-4: HKCDITLQEIIKTLNSLTEQKTLCTELTVTDIFAASKNTTEKETFCRAATVLRQFYSHHEKDTRCLGATAQQFHRHKQLIRFLKRLDRNLWGLAGLNSCPVKEANQSTLENFLERLKTIMREKYSKCSS", "values": [
      {"measurement": "increase in ratio value by stimulation with IL-4", "result": "about 10 fold"}
    ]}
  ]
}
